Data published in the supplement of paper PMC10567573.

B1: SPDEF (parent)
chain: YPEDSSWAAKAPGASSREEPPEEP

Variants of: B1
Assay: protein stability index of a GFP-peptide fusion (GPS, HEK-293T) (PSI 1-6); higher = more stable
Conditions: c terminus: a fixed tail appended
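Note: lentivirally expressed fusions sorted by FACS into six bins by GFP to DsRed ratio, PSI derived from sequencing read proportions per bin multiplied by bin number.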

Protein stability index of substitutions, site by site:
S6: W 1.27, V 2.94, I 2.51, Y 3.85, A 3.6, H 4.38
G13: A 3.64, F 3.87, Q 4.07, N 4.22, P 3.94, L 4.09
S15: V 2.7, G 3.53, Q 3.47, R 3.96, Y 3.1, E 4.14, D 4.61, F 2.86
Y1: C 5.04, T 5.68, V 5.76, S 5.55, L 5.79, D 5.97, K 5.73
P24: H 3.42, N 4.54, E 3.48, R 3.86, D 4.17
S16: T 2.85, A 3.72, K 4.51, H 3.92, Y 3.73, D 4.23, V 3.78, F 4.2, L 4.36
P21: W 3.66, Y 4.3, H 4.13
E18: V 4.17, F 3.05, I 4, N 3.43, S 4.18, R 4.32, H 3.86, Y 3.46
A11: P 4.6, H 4.13, N 4.59, W 3.56, R 4.78, S 4.01
R17: I 4.85, F 4.27, L 3.62, H 4.67, Q 4.06, V 4.3, W 4.23, N 4.14, A 3.11
W7: S 5.79, A 5.85, E 5.88, N 5.91, V 5.52, L 5.68, P 5.38, F 5.86, Y 5.92
P20: V 4.26, Q 3.46, K 3.89, I 3.82, R 2.98, E 4.2, T 3.8
K10: Q 3.11, F 2.79, C 2.56, A 2.79, T 3.36, H 3.26, S 3.69, Y 1.79
S5: M 4.58, R 4.26, F 3.86, K 4.49, T 4.55, C 3.24, Q 4.03
A14: W 3.31, D 4.37, Y 3.89, T 4.03, S 4.95, R 4.16
E3: K 3.9, I 4.92, P 3.15, R 3.78, A 2.01, N 2.49, V 4.09, H 3.05, Q 3.24, T 3.82, D 4.24
A9: M 4.11, D 5.61, K 3.97, I 3.23, T 4.32, V 3.82, Q 4.04
E19: T 4.49, N 4.32, K 3.91, Q 3.69, F 3.06, D 3.37, V 4.48
E23: Y 3.65, S 3.1, A 4.06, R 3.6, F 3.89, N 3.58, D 4.44, L 3.45, G 3.9
E22: L 3.92, Y 3.78, F 3.43, S 2.71
P2: A 1.79, M 5.18, R 5.43, T 2.95, K 5.1, H 2.25, G 3.9
P12: I 3.62, M 3.68, N 3.89, H 4.11, Q 4.18, R 3.76, A 4.12, D 3.97, F 3.59
D4: N 2.4, Q 3.09
A8: Y 3.17, L 4.72, I 3.72, N 4.45, F 3.33, D 5.61, R 3.28
